Key:
Details in all cases: both partners purified
[1] = target: T1, APH2, antiparallel homodimeric coiled coil of the synthetic peptide APHshSN (N-terminus acetylated; C-terminus amidated); assay: ITC; titrations at 18, 25 and 32 °C fitted globally (independent binding sites, temperature-independent heat capacity); parameters reported at 25 °C; 20 mM sodium phosphate pH 7.0, 150 mM NaCl
T1 construct: designed peptide APH (full name APHshSN); also called APH peptide pair; source: synthetic peptide, bought: ProteoGenix
T1 peptide: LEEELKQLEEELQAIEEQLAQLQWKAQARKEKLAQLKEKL

[2] = target: T1, APH2, antiparallel homodimeric coiled …; assay: ITC; nanobody in the syringe titrated into the cell with TET12SN or a tetrahedron variant (2-5 µM), CC peptide dimer (5-10 µM) or a complex preformed by a first titration; MicroCal VP-ITC, 25 °C; 20 mM sodium phosphate pH 7.0, 150 mM NaCl; independent binding sites model (SEDPHAT), errors by Monte-Carlo
[3] = target: T2, preformed Nb30_2-APH2 complex (llama, N-terminus acetylated; C-terminus amidated); assay: as above
T2 construct: peptide APHshSN, as Dm8; Nb30, as Dm5; source: formed in the ITC cell by a first titration of Nb30 into APH2; copies: 2 + 2

[4] = target: T3, preformed Nb28_2-APH2 complex (llama, N-terminus acetylated; C-terminus amidated); assay: as above
T3 construct: peptide APHshSN, as Dm8; Nb28, as Dm3; source: formed in the ITC cell by a first titration of Nb28 into APH2; copies: 2 + 2

[5] = target: T4, antiparallel homodimeric APH coiled-coil (APH2), isolated peptide dimer (synthetic construct (designed peptide …)); assay: ITC; nanobody titrated into the CC peptide dimer, the origami protein or a preformed nanobody-target complex; conditions in SI Appendix
T4 construct: residues named in the text: E4, L8, I15, Q18, Q21, L22, W24, K25, R29; also called APH CC; APH2 peptide; source: synthetic peptide
T4 chain: T1 peptide

[6] = target: T4, antiparallel homodimeric APH …; assay: crystal structure; crystals of nanobody-CC dimer complexes, solved by molecular replacement

B1: nanobody Nb28 (VHH)
VHH: QVQLQESGGGLVQPGGSLRLSCAAPGFRLDNYVIGWFRQAPGKEREGVSCISSSAGSTYYADSVKGRFTISRDNAKNTVYLQMNSLKPEDTAVYYCATACYSSYVTYWGQGTQVTVSS
notes: no cleavage of the His6 tag is described; also called Group 8 (Nb28); source: E. coli WK6, periplasmic extract, purified (Ni2+-NTA; some nanobodies also SEC)
[1]
  Kd: 94 ± 7.5 nM
  stoichiometry N: 2 nanobody per APH2 dimer (cell:syringe)
[2]
  Kd: 140 ± 10 nM
  stoichiometry N: 2 nanobody per APH2 dimer (cell:syringe)
[3]
  Kd: 23 ± 1.7 nM
  stoichiometry N: 2 nanobody per complex (cell:syringe)

B2: nanobody Nb30 (VHH)
VHH: QVQLQESGGGLVQPGGSLRLSCAASGSIFSDNDMGWYRQPPGKQREWVATITYDHVTWYADSVKGRFAISRDNAKNTVYLQMNDLKPEDTAVYYCNAVPGRRGSWGQGTQVTVSS
notes: no cleavage of the His6 tag is described; also called Group 10 (Nb30); source: E. coli WK6, periplasmic extract, purified (Ni2+-NTA, SEC)
[2]
  Kd: 710 ± 58 nM
  stoichiometry N: 2 nanobody per APH2 dimer (cell:syringe)
[4]
  Kd: 55 ± 4.2 nM
  stoichiometry N: 2 nanobody per complex (cell:syringe)

B3: nanobody Nb26 (VHH)
VHH: QVQLQESGGGLVQAGDSLRLSCAASGRTFSTYPMGWFRQAPGKEREFVAASSSRAYYADSVKGRFTISRNNAKNTVYLQMNSLKPEDTAVYYCVADSSPYYRRYDAAQDYDYWGQGTQVTVSS
notes: no cleavage of the His6 tag is described; also called Group 1 (Nb26); source: E. coli WK6, periplasmic extract, purified (Ni2+-NTA; some nanobodies also SEC)
[2]
  stoichiometry N: 2 nanobody per APH2 dimer (cell:syringe)

B4: nanobody Nb49 (VHH)
VHH: QVQLQESGGGLVQPGGSLRLSCIASGRTFNPYGMGWFRQVPGKERTFVSGITWIGGTTYYVNSVKGRFTISRDRAKNTVYLQMNSLKPEDTAVYYCAADKDNTGYNYWGQGTQVTVSS
notes: no cleavage of the His6 tag is described; also called Group 4 (Nb49); source: E. coli WK6, periplasmic extract, purified (Ni2+-NTA; some nanobodies also SEC)
[2]
  stoichiometry N: 2 nanobody per APH2 dimer (cell:syringe)

B5: nanobody Nb26 (VHH)
VHH: B3 VHH
notes: selected by phage display from a llama immunised with TET12SN; construct and tags are in SI Appendix, Materials and Methods; source: E. coli, recombinant, produced and isolated according to standard procedures
[5]
  Kd: 39 nM
  dH: -28 kcal ⋅ mol^−1
[6]
  stoichiometry N: 2 nanobodies per APH2 dimer (printed 2:2 nanobody:CC peptide)

B6: nanobody Nb49 (VHH)
VHH: B4 VHH
notes: as for B5
[5]
  Kd: 570 nM
[6]
  stoichiometry N: 2 nanobodies per APH2 dimer (printed 2:2 nanobody:CC peptide)

B7: nanobody Nb28 (VHH)
VHH: B1 VHH
notes: as for B5
[6]
  stoichiometry N: 2 nanobodies per APH2 dimer (printed 2:2 nanobody:CC peptide)

B8: nanobody Nb30 (VHH)
VHH: B2 VHH
notes: as for B5
[6]
  stoichiometry N: 2 nanobodies per APH2 dimer (printed 2:2 nanobody:CC peptide)

From article PMC8092592, “A nanobody toolbox targeting dimeric coiled-coil modules for functionalization of designed protein origami structures” (Proceedings of the National Academy of Sciences of the …, 2021)
